From US20200087363A1 (IMMATICS BIOTECHNOLOGIES, published 2020)

B1: KEVDPASNTYTL (peptide)
peptide: KEVDPASNTYTL
B2: KEVDPTGHSF (peptide)
peptide: KEVDPTGHSF
B3: EVEVGEVKSW (peptide)
peptide: EVEVGEVKSW
B4: QEIDQKRLEF (peptide)
peptide: QEIDQKRLEF
B5: AEIEADRSYQH (peptide)
peptide: AEIEADRSYQH
B6: MEFKTLNKN (peptide)
peptide: MEFKTLNKN
B7: VEVNGVPRW (peptide)
peptide: VEVNGVPRW
B8: QEPFTRPVL (peptide)
peptide: QEPFTRPVL
B9: AEANPRDLGASW (peptide)
peptide: AEANPRDLGASW
B10: SEVPVDSHY (peptide)
peptide: SEVPVDSHY
B11: SEVPVDSHYY (peptide)
peptide: SEVPVDSHYY
B12: VEVKYEGHW (peptide)
peptide: VEVKYEGHW
B13: VEAQDRETW (peptide)
peptide: VEAQDRETW
B14: VTEGAVEVKY (peptide)
peptide: VTEGAVEVKY
B15: YENIPVDKV (peptide)
peptide: YENIPVDKV
B16: GESVSWHLF (peptide)
peptide: GESVSWHLF
B17: DEINHQSL (peptide)
peptide: DEINHQSL
B18: NENLDYAIL (peptide)
peptide: NENLDYAIL
B19: LEVLHQGQW (peptide)
peptide: LEVLHQGQW
B20: SEASQSPQY (peptide)
peptide: SEASQSPQY
B21: RYFDENIQKFIW (peptide)
peptide: RYFDENIQKFIW
B22: TELTEARVQVW (peptide)
peptide: TELTEARVQVW
B23: EEAMKRLSY (peptide)
peptide: EEAMKRLSY
B24: EMPGGPVW (peptide)
peptide: EMPGGPVW
B25: REYQEVMNSKL (peptide)
peptide: REYQEVMNSKL
B26: RESHLTEIRQY (peptide)
peptide: RESHLTEIRQY
B27: AESFTSGRHYW (peptide)
peptide: AESFTSGRHYW
B28: IEAPKLMVV (peptide)
peptide: IEAPKLMVV
B29: IEIKDRLQL (peptide)
peptide: IEIKDRLQL
B30: QEIDRGQYI (peptide)
peptide: QEIDRGQYI
B31: EEMPEEIHL (peptide)
peptide: EEMPEEIHL
B32: EKGLISAF (peptide)
peptide: EKGLISAF
B33: KEAPNIVTL (peptide)
peptide: KEAPNIVTL
B34: AESDFSNNML (peptide)
peptide: AESDFSNNML
B35: MEAELVRRI (peptide)
peptide: MEAELVRRI
B36: TEHSGIYSC (peptide)
peptide: TEHSGIYSC
B37: SEKWFRMGF (peptide)
peptide: SEKWFRMGF
B38: QELFLHPVL (peptide)
peptide: QELFLHPVL
B39: HEIIIRSHW (peptide)
peptide: HEIIIRSHW
B40: IEAYLERIGY (peptide)
peptide: IEAYLERIGY
B41: EELRMLSF (peptide)
peptide: EELRMLSF
B42: MEELRMLSF (peptide)
peptide: MEELRMLSF
B43: RMLSFQQMTW (peptide)
peptide: RMLSFQQMTW
B44: KESDAGRYY (peptide)
peptide: KESDAGRYY
B45: KESDAGKYY (peptide)
peptide: KESDAGKYY
B46: AETEPERHLG (peptide)
peptide: AETEPERHLG
B47: NESDRLVYF (peptide)
peptide: NESDRLVYF
B48: SEVFHVSEA (peptide)
peptide: SEVFHVSEA
B49: TELQIPSF (peptide)
peptide: TELQIPSF
B50: HENLIEDF (peptide)
peptide: HENLIEDF
B51: IEIILLSGSL (peptide)
peptide: IEIILLSGSL
B52: NEAGEMIKHY (peptide)
peptide: NEAGEMIKHY
B53: TEDARHPESW (peptide)
peptide: TEDARHPESW
B54: SQDVAGTTF (peptide)
peptide: SQDVAGTTF
B55: VEEERYTGQW (peptide)
peptide: VEEERYTGQW
B56: EEVQDGKVI (peptide)
peptide: EEVQDGKVI
B57: AEIATTGQLY (peptide)
peptide: AEIATTGQLY
B58: SEIYQPRGF (peptide)
peptide: SEIYQPRGF
B59: GESSEVKAVL (peptide)
peptide: GESSEVKAVL
B60: EAYDIELNKW (peptide)
peptide: EAYDIELNKW
B61: AEDEDGKIVGY (peptide)
peptide: AEDEDGKIVGY
B62: DEDGKIVGY (peptide)
peptide: DEDGKIVGY
B63: EEIEAHIAL (peptide)
peptide: EEIEAHIAL
B64: EEQDFINNRY (peptide)
peptide: EEQDFINNRY
B65: AETENRYCV (peptide)
peptide: AETENRYCV
B66: EEGPSVPKIY (peptide)
peptide: EEGPSVPKIY
B67: KEHNSSVPWSS (peptide)
peptide: KEHNSSVPWSS
B68: REMFVFKDQW (peptide)
peptide: REMFVFKDQW
B69: QEAPRPASSL (peptide)
peptide: QEAPRPASSL
B70: WEVVHTVF (peptide)
peptide: WEVVHTVF

molecular target: T1, HLA-B*44:05 (human); assay: UV peptide exchange, anti-b2m ELISA
T1 construct: also called peptide-receptive MHC class I molecule
Protocol: Only peptide candidates that can effectively bind and stabilize the peptide-receptive MHC molecules prevent dissociation of the MHC complexes. To determine the yield of the exchange reaction, an ELISA was performed based on the detection of the light chain (β2m) of stabilized MHC complexes. The assay was performed as generally described in Rodenko et al. (Rodenko et al., 2006)
96 well MAXISorp plates (NUNC) were coated over night with 2 ug/ml streptavidin in PBS at room temperature, washed 4× and blocked for 1 h at 37° C. in 2% BSA containing blocking buffer. […] Peptide-MHC monomers of the UV-exchange reaction were diluted 100-fold in blocking buffer. Samples were incubated for 1 h at 37° C., washed four times, incubated with 2 ug/ml HRP conjugated anti-β2m for 1 h at 37° C., washed again and detected with TMB solution that is stopped with […]. Absorption was measured at 450 nm.

| Binder | peptide exchange yield [%] |
| --- | --- |
| B1 | 20 to 50 |
| B2 | 50 to 75 |
| B3 | 10 to 20 |
| B4 | 20 to 50 |
| B5 | 50 to 75 |
| B6 | 20 to 50 |
| B7 | > 75 |
| B8 | 50 to 75 |
| B9 | 50 to 75 |
| B10 | 50 to 75 |
| B11 | 50 to 75 |
| B12 | > 75 |
| B13 | 20 to 50 |
| B14 | 10 to 20 |
| B15 | 50 to 75 |
| B16 | 50 to 75 |
| B17 | 20 to 50 |
| B18 | > 75 |
| B19 | 50 to 75 |
| B20 | 50 to 75 |
| B21 | 50 to 75 |
| B22 | 50 to 75 |
| B23 | 20 to 50 |
| B24 | 50 to 75 |

| Binder | peptide exchange yield [%] |
| --- | --- |
| B25 | 50 to 75 |
| B26 | 20 to 50 |
| B27 | > 75 |
| B28 | 10 to 20 |
| B29 | 50 to 75 |
| B30 | > 75 |
| B31 | 50 to 75 |
| B32 | 20 to 50 |
| B33 | > 75 |
| B34 | 50 to 75 |
| B35 | 50 to 75 |
| B36 | 20 to 50 |
| B37 | 50 to 75 |
| B38 | > 75 |
| B39 | 50 to 75 |
| B40 | 50 to 75 |
| B41 | 20 to 50 |
| B42 | 50 to 75 |
| B43 | 20 to 50 |
| B44 | 50 to 75 |
| B45 | 50 to 75 |
| B46 | 20 to 50 |
| B47 | 50 to 75 |
| B48 | 20 to 50 |

| Binder | peptide exchange yield [%] |
| --- | --- |
| B49 | 20 to 50 |
| B50 | 50 to 75 |
| B51 | > 75 |
| B52 | 20 to 50 |
| B53 | > 75 |
| B54 | 20 to 50 |
| B55 | 50 to 75 |
| B56 | 20 to 50 |
| B57 | 50 to 75 |
| B58 | 50 to 75 |
| B59 | 50 to 75 |
| B60 | 50 to 75 |
| B61 | 20 to 50 |
| B62 | 20 to 50 |
| B63 | 50 to 75 |
| B64 | > 75 |
| B65 | 50 to 75 |
| B66 | 20 to 50 |
| B67 | > 75 |
| B68 | > 75 |
| B69 | 50 to 75 |
| B70 | 20 to 50 |
